The values that follow come from patent publication US20040171794A1 (DYAX, published 2004).

The assay concerns the target T1, human neutrophil elastase (human, UniProt P08246 30-247, limits assumed).
T1 construct: also called HNE; hNE
T1 sequence (looked up): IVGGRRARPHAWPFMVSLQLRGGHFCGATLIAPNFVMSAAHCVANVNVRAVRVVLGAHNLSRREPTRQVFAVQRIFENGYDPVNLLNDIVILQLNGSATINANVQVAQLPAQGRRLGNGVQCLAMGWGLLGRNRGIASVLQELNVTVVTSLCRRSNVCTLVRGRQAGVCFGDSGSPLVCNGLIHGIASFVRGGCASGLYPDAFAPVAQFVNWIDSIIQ
The experiment in a line: equilibrium inhibition of HNE activity on a fluorogenic peptide substrate, tight-binding model, 24 h incubation at 30 C.

Experimental: Inhibition of hNE was determined at 30° C. in 50 mM HEPES, pH 7.5, 150 mM NaCl, and 0.1% Triton X-100. […] Residual enzymatic activities were determined from the relative rates of substrate hydrolysis. The hydrolysis reaction was initiated by addition of N-methoxysuccinyl-Ala-Ala-Pro-Val-7-amino-methylcoumarin (SEQ ID No.: 41) as substrate. Enzymatic cleavage of this substrate releases the methylcoumarin moiety with concomitant increase the sample fluorescence. The rate of substrate hydrolysis was monitored at an excitation of 360 nm and an emission of 460 nm. Plots of the percent remaining activity versus inhibitor concentration were fit by nonlinear regression analysis to Equation 1 to determine equilibrium dissociation constants.

B1: DX-890 (peptide)
chain: EACNLPIVRGPCIAFFPRWAFDAVKGKCVLFPYGGCQGNGNKFYSEKECREYCGVP
notes: also called native DX-890
With B1, the binding result is given as “binds”.
